Data as given in patent publication US20240262910A1 (Memorial Sloan Kettering, published 2024).

Legend:
[1] = target: T1, human CD33, full length, on cells (human, UniProt P20138 18-364); test: flow cytometry, U937 cells
T1 construct: NIH-3T3 cells stably overexpressing full-length human CD33, or AML lines U937 and Set2 with endogenous CD33; the cell line is named under assay; also called 3T3-huCD33; 3T3-CD33
Procedure: (§1) Binding to CD33 on Cells. To assess the binding of TDI-Y-006, TDI-Y-007 and 1J19 to cell surface-bound CD33, 3T3 cells overexpressing CD33, as well as the U937 AML cell line, which expresses endogenous CD33, were used. U937 CD33KO or NALM6 were included as negative controls. Briefly, NALM6, U937 CD33+ and KO cells were blocked with human IgG Fc for 20 minutes on ice. The recombinant antibodies were then serially diluted starting at 100 μg/mL concentration and added for 30 minutes on ice. AlexaFluor 647-conjugated goat anti-human F(ab′)2 was added to cells for 30 minutes on ice, washed and analyzed by flow cytometry, normalized to secondary only staining (MFI ratio). EC50 values were determined by non-linear regression.

[2] = target: T1, human CD33, full length, on cells; test: flow cytometry, 3T3-CD33 cells
Procedure: as §1

[3] = target: T2, human CD33 extracellular domain with 6xHis-tag (human, UniProt P20138 18-259); test: BLI, huCD33-His on anti-penta-His sensor, no competitor
T2 construct: Bought (R&D Systems, Acro Biosystems); also called huCD33-His; huCD33(ECD)-His
Procedure: Epitope Binning. Epitope binning was carried out by a BLI competition experiment using an Octet Red96e. Human CD33-His was captured by an anti-penta-His biosensor. A 4×4 matrix with TDI-Y-006, TDI-Y-007, 1J19 and H195 was tested. A reference biosensor was used to determine the overall capture level for each antibody. After pre-binding the antibodies at saturation levels, the biosensors were dipped into antibody solutions to assess competition. […] However, when TDI-Y-006 was pre-bound, binding of TDI-Y-007 was blocked. […] Similarly, 1J19 and H195 have epitopes that partially overlap. No competition was observed between antibodies binding to the membrane-proximal IgC2 domain (TDI-Y-006 and TDI-Y-007) and antibodies binding to the membrane-distal IgV domain (1J19 and H195).

[4] = target: T2, human CD33 extracellular domain with …; test: BLI (Octet Red96e), antibody on anti-huFc sensor, huCD33-His as analyte, 1:1 fit
Procedure: The binding affinity to human CD33 protein was measured by biolayer interferometry (BLI) using an Octet Red96e. All experiments were carried out using kinetic buffer (PBS pH 7.4, 0.01% BSA, 0.002% Tween-20). The antibodies were captured by an anti-huFc biosensor and a 7-point, 2-fold dilution series of huCD33-His was used as analyte. The data was processed by double reference subtraction, and response curves were globally fit to a 1:1 Langmuir binding model. […] The binding affinities are similar to the H195 reference antibody.

[5] = target: T3, mouse CD33 extracellular domain with 6xHis-tag (mouse, UniProt Q63994 18-240); test: ELISA on recombinant moCD33-His, purified hybridoma subclone antibody, readout RLU; antibody concentration not given
T3 construct: range 18-240; also called moCD33-His; moCD33(ECD)-His
T3 sequence: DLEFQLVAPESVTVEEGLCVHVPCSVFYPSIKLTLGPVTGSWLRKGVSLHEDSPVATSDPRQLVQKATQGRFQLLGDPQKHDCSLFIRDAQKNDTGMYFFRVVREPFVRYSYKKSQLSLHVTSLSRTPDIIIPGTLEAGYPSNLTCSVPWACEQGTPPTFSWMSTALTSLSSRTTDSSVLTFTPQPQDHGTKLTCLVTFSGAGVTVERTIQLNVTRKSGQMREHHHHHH

[6] = target: T4, human CD33 IgC2 type domain with 6xHis-tag (human, UniProt P20138 140-259); test: ELISA, hybridoma supernatant, RLU
T4 construct: Produced at LakePharma; also called huCD33IgC2-His; CD33 IgC2-6xHis

[7] = target: T2, human CD33 extracellular domain with …; test: ELISA, hybridoma supernatant
[8] = target: T1, human CD33, full length, on cells; test: flow cytometry, purified mAb, Set2 cells
[9] = target: T5, human CD33 IgC2 domain only, on NIH-3T3 cells (human, UniProt P20138 140-364); test: flow cytometry, hybridoma supernatant, 3T3-huCD33IgC2 cells, MFI
T5 construct: the whole entry is named here; also called 3T3-huCD33IgC2; 3T3 CD33-IgC2

[10] = target: T1, human CD33, full length, on cells; test: flow cytometry, purified mAb, U937 cells
[11] = target: T1, human CD33, full length, on cells; test: flow cytometry, hybridoma supernatant, U937 cells
[12] = target: T1, human CD33, full length, on cells; test: flow cytometry, hybridoma supernatant, 3T3-huCD33 cells
[13] = target: T4, human CD33 IgC2 type domain with …; test: ELISA, hybridoma supernatant

T4 sequence (P20138 other isoform, or with tags, fused parts or gaps): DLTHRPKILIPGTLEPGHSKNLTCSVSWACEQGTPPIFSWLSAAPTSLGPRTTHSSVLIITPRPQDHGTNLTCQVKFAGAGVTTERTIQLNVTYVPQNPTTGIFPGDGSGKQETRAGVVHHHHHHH
T1 sequence (P20138 18-364): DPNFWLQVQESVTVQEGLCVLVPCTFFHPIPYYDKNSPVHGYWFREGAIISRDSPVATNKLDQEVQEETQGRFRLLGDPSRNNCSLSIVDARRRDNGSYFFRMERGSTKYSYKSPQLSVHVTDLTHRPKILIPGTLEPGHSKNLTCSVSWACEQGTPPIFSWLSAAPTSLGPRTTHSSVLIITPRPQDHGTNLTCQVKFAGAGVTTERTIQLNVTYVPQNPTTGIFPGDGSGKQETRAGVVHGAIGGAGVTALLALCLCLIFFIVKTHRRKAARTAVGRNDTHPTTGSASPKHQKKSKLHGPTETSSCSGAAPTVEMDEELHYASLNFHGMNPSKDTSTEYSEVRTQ
T2 sequence (P20138 other isoform, or with tags, fused parts or gaps): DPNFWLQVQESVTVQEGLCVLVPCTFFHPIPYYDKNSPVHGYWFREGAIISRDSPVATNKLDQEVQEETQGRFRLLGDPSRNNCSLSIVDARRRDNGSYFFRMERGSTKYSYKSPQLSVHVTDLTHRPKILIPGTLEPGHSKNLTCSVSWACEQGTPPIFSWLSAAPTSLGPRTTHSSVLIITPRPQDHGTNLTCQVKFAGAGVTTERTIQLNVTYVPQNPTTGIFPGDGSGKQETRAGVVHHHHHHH
T5 sequence (P20138 140-364 limits assumed): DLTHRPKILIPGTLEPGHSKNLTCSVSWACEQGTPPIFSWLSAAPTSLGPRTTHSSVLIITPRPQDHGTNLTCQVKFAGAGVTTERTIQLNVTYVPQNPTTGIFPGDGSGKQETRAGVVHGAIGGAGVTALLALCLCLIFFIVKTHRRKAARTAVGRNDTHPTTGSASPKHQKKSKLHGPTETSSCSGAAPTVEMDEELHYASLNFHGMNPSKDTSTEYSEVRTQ

B1: H195 (lintuzumab) (antibody, V domains shown)
VH: QVQLVQSGAEVKKPGSSVKVSCKASGYTFTDYNMHWVRQAPGQGLEWIGYIYPYNGGTGYNQKFKSKATITADESTNTAYMELSSLRSEDTAVYYCARGRPAMDYWGQGTLVTVSS
VL: DIQMTQSPSSLSASVGDRVTITCRASESVDNYGISFMNWFQQKPGKAPKLLIYAASNQGSGVPSRFSGSGSGTDFTLTISSLQPDDFATYYCQQSKEVPWTFGQGTKVEIK
[1]
  EC50: 0.4 nM
[2]
  EC50: 4.8 nM
[3]
  BLI total binding capacity (Reference Biosensor): 0.743
[4]
  Kd: 1.22 nM
  kon: 358000 M⁻¹ s⁻¹

B2: 1-A20 (antibody, V domains shown)
VH: QVQLQESGPGLVKPSETLSLTCTVSGDSISSYYWSWIRQPAGKGLEWIGRIYTSGNTNYNPSLKSRVTMSVDKSKNQFSLKLRSVTAADTAVYYCARDGDNRDSDAFDIWGQGTMVTVSS
VL: SPGTLSLSPGERATLSCRASQNISSSYLAWCQQKPGQAPRLFIYGTSRRATGIPDRFSGSGSGTDFTLTISRLEPEDFAVYYCQQYGSSPLTFGGGTKVEIK
notes: AlivaMab mouse hybridoma antibody; also called 1-A20-A
[5]
  binding result: no binding
[6]
  binding result: no binding
[7]
  RLU: 117000 RLU
[8]
  EC50: 0.4 nM
[9]
  binding result: no binding (tested: A signal >100,000 was used as cut off)
[10]
  EC50: 0.6 nM
[11]
  MFI: 558000 MFI
[12]
  MFI: 1.98e+06 MFI

B3: 1-H19 (antibody, V domains shown)
VH: QVQLQESGPGLVKPSETLSLTCTVSGGSISTYYWSWIRQPAGKGLEWIGRIYTSGNTNYNPSLKSRVTMSVDTSKNQLSLKLRSVTAADTAVYYCARDGDNRNSDAFDIWGQGTMVTVSS
VL: QSVLTQPPSVSGAPGQRVTISCTGSSSNIGAGYDVHWYQQLPGTAPKLLIYGNSNRPSGVPDRFSGSKSGTSASLAITGLQAEDEADYYCQSYDRSLSGWVFGGGTKLTVL
notes: AlivaMab mouse hybridoma antibody; also called 1-H19-A
[5]
  binding result: no binding
[7]
  RLU: 132000 RLU
[13]
  RLU: 58900 RLU
[8]
  EC50: 0.4 nM
[10]
  EC50: 0.866 nM
[11]
  MFI: 479000 MFI
[12]
  MFI: 1.75e+06 MFI

B4: 1-J19 (hybridoma antibody) (antibody, V domains shown)
VH: QVQLQQSGPGLVKPSQTLSLTCAISGDSVSSNSAAWNWIRQSPSRGLEWLGRTYFRSKWYNVYAVSVKSRITINPDTSKNQFSLQLNSVTPEDTAVYYCASEGGSYYDHWGQGTLVTVSS
VL: DIQMTQSPSSVSASVGDRVTITCRASQGISNWLTWYQQKPGKAPKLLIYAASSLQSGVPSRFSGSGSGTDFTLTISSLQPEDFATYYCQQADSFPFTFGPGTKVDIK
notes: AlivaMab mouse hybridoma antibody; also called 1-J19-A
[7]
  RLU: 95600 RLU
[13]
  RLU: 15200 RLU
[8]
  EC50: 7.93 nM
[9]
  binding result: no binding (tested: A signal >100,000 was used as cut off)
[10]
  EC50: 10.2 nM
[11]
  MFI: 339000 MFI
[12]
  MFI: 3.86e+06 MFI

B5: 2-F18 (antibody, V domains shown)
VH: QIQLVESGGGVVQPGRSLRLSCAASGFTFSAYPMHWVRQAPGKGLEWVAIISYDGSNNYYADSVKGRFTISRDNSKNTMYLQINSLRAEDTGVYYCARGKVGTLDFWGQGTLVTVSS
VL: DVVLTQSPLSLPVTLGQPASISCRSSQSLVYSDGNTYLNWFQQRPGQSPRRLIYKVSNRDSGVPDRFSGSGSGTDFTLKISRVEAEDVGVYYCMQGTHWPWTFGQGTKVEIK
notes: AlivaMab mouse hybridoma antibody; also called 2-F18-A
[5]
  binding result: no binding
[7]
  RLU: 251000 RLU
[13]
  RLU: 20400 RLU
[8]
  EC50: 24.2 nM
[10]
  EC50: 11.9 nM
[11]
  MFI: 351000 MFI
[12]
  MFI: 3.56e+06 MFI

B6: 1-P13 (antibody, V domains shown)
VH: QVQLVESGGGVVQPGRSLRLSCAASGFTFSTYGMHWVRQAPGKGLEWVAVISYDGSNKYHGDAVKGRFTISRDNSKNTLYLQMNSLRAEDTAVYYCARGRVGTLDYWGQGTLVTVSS
VL: DVVMTQSPLSLPVSLGQPASISCRSSRGLVYSDVNTNLNWFQQRPGQSPRRLIYKVSNRDSGVPDRFSGSGSGTDFTLKISRVEAEDVGVYYCMQGTHWPWTFGQGTKVEIK
notes: AlivaMab mouse hybridoma antibody; also called 1-P13-A
[5]
  binding result: no binding
[6]
  binding result: no binding
[7]
  RLU: 117000 RLU
[8]
  EC50: 5 nM
[10]
  EC50: 6.33 nM
[11]
  MFI: 559000 MFI
[12]
  MFI: 2.15e+06 MFI
